Experimental data published in patent US20240287172A1 (SCIRHOM, published 2024).

T1: hiR1-FL-WT-T7 (human, UniProt Q96CC6 1-855)
T1 construct: on MEF-DKO cells
T1 sequence: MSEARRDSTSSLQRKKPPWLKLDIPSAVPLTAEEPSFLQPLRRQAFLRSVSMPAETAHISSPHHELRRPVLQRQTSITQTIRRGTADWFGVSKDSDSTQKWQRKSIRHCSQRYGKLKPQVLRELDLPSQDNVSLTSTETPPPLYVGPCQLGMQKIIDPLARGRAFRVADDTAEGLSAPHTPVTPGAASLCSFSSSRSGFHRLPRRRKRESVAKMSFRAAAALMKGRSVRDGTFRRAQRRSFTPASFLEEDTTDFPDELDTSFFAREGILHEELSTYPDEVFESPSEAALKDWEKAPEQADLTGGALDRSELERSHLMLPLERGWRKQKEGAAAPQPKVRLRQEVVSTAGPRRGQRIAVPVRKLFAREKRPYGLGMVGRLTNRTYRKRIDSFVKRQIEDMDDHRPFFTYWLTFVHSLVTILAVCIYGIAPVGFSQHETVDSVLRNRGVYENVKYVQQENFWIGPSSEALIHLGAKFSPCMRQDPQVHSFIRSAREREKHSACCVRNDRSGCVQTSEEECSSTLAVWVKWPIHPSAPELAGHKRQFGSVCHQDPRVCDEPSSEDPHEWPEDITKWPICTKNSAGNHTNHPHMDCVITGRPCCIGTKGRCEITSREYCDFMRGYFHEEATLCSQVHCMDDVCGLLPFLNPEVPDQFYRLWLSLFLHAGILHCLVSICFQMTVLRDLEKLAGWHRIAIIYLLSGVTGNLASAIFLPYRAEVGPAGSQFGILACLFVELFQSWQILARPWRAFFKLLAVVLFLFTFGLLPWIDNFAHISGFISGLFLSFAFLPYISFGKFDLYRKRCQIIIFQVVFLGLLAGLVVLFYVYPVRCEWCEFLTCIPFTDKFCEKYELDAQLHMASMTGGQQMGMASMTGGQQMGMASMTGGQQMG

T2: hiR2-FL-G587A-T7 (human, UniProt Q6PJF5 1-856)
T2 sequence: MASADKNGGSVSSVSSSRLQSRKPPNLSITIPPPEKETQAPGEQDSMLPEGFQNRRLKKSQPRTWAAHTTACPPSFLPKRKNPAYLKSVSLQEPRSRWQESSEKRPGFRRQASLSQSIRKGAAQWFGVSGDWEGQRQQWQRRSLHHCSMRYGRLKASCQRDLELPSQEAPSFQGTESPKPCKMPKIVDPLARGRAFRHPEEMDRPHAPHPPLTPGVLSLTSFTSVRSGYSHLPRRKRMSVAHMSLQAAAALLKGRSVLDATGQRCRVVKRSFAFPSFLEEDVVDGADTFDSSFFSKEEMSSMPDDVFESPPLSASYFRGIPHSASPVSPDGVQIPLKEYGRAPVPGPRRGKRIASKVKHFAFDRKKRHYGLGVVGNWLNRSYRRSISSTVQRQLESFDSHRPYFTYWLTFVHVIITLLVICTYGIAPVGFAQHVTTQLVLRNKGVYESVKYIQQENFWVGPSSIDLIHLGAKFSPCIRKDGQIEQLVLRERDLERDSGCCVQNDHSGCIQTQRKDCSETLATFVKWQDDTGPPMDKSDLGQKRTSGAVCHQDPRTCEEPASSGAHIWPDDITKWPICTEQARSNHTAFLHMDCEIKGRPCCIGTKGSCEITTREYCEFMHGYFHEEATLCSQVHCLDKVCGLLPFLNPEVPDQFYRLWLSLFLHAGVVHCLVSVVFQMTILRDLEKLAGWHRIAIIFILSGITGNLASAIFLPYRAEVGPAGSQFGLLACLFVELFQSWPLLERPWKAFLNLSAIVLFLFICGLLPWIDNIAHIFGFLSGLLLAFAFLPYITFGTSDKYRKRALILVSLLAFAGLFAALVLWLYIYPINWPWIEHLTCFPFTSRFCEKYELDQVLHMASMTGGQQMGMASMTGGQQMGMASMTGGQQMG


Key:
hiR1-FL-WT-T7 = molecular target: T1, hiR1-FL-WT-T7; assay: FACS on MEF-DKO cells
hiR2-FL-G587A-T7 = molecular target: T2, hiR2-FL-G587A-T7; assay: FACS on MEF-DKO cells expressing the variant, 3 µg/ml antibody
Summary of the method: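 Primary stain: antibody 3 μg/ml, 1 h on ice; controls buffer alone. Secondary: PE anti-mouse IgG F(ab′)2 1:100, 1 h on ice, light-protected. Washes at 4° C; read by flow cytometry.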

Binder | binding result (hiR1-FL-WT-T7) | loss of binding vs wild type (hiR2-FL-G587A-T7)
antibody 42 (antibody, V domains shown, mouse IgG, kappa light chain; also called clone #42; purified antibody 42) VH: QVTLKESGPGILQPSQTLSLTCSLSGFSLSTFGRGVGWIRQPSGKGLEWLAHIWWDDEKYYNPALKSRLTISKDTSKNQVFLRIANVDTADTATYYCARIQNYGSNYWYFDVWGTGTTVTVSS VL: LIVLTQSPAIMSASPGEKVTMTCGATSRISYMFWYQQKPGSSPRVLIYDTSNLASGVPVRFSGSGSGTSYSLTISRVEAEDVATYYCQQWNSYPLTFGAGTKLELK | no binding (tested: 3 µg/ml) | 
antibody 34 (antibody, V domains shown, mouse IgG, kappa light chain; also called clone #34; purified antibody 34) VH: QVTLKESGPGILQPSQTLSLTCSFSGFSLSTFSLGVGWIRQSSGKGLEWLAHIWWDDEKYYNPALKSRLTISKDTSKNQVFLKIANVDAADTATYYCARAYYSKSYYALDYWGQGTSVTVSS VL: DIQMTQSPSSLSASLGERVSLTCRASQEISGYLSWLQQKPDGTIKRLIYAASTLDSGVPKRFSGSRSGSDYSLAISSLESEDFADYYCLQYANFPFTFGSGTKLEIK | no binding (tested: 3 µg/ml) | 
antibody 43 (antibody, V domains shown, mouse IgG, kappa light chain; also called clone #43; purified antibody 43) VH: QVALKESGPGILQPSQTLSLTCSFSGFSLSTFGMGVGWIRQSSGKGLEWLANIWWDDDKYYNPALKSRLTISKDASKNQAFLKIANVDTADTATYYCARIGNYGSNYWYFDVWGTGTTVTVSS VL: QIVLTQSPAIMSASPGERVTMTCSANSRISYMYWYQQKPGSSPRLLIYDTSNLASGVPVRFSGSGSGTSYSLTISRMEAEDAATYNCQQWSSYPLTFGAGTKLELK | no binding (tested: 3 µg/ml) | ≥ 30%
antibody 44 (antibody, V domains shown, mouse IgG, kappa light chain; also called clone #44; purified antibody 44) VH: QVTLKESGPGILQPSQTLSLTCSFSGFSLSTFGMGVGWIRQPSEKGLEWLAHIWWDDDKYYNPALKSRLTISKDTSKNQIFLKITNVDTAETATYYCSRIGNYGSNYWYFDVWGTGTTVTVSS VL: QIVLTQSPAVMSASPGEKVTMTCTASSSVYYMYWYQQTPGSSPRLLIYDTSNLASGVPVRFSGSGSGTSYSLTISRMEAEDAATYYCQQWNTYPLTFGAGTKLELK | no binding (tested: 3 µg/ml) | ≥ 30%
antibody 48 (antibody, V domains shown, mouse IgG, kappa light chain; also called clone #48; purified antibody 48) VH: QVQLQQSGTELVRPGTSVKVSCKASGYAFTNYLIEWVKQRPGQGLEWIGVINPGSGFTKYNEKFKGKATLTADKSSSTVYMHLSSLTSEDSAVYFCARGLYRAMDYWGQGTSVTVSS VL: DIQMTQSPASQSASLGESVTITCLASQTIATWLAWYQQKPGKSPQLLIYGATTLADGVPSRFSGGGSGTKFSFKISSLQAEDFVSYYCQQLYSTPYTFGGGTKLEIK |  | ≥ 30%
antibody 50 (antibody, V domains shown, mouse IgG, kappa light chain; also called clone #50; purified antibody 50) VH: QVQLQQSGAELVRPGASVKVSCKASGYAFSNYLIEWVKQRPGQGLEWIGVINPGSGFTKYNEKFKGKATLTADKSSSTAYMQLSSLTSEDSAVYFCARGLYRAMDYWGQGTSVTVSS VL: DIQMTQSPASQSASLGESVTITCLASQTIGTWLAWYQQKPGKSPQLLIYAAASLADGVPSRFSGGGSGTKFSFKISSLQAEDFVNYYCQQIYSTPYTFGGGTKLEIK | no binding (tested: 3 µg/ml) | ≥ 60%
